Measurements taken from article PMC8421143 (Nucleic Acids Research, 2021).

Target: recombinant full-length human BLM with a C-terminal His6-tag (human, UniProt P54132 1-1417)
Assay: co-IP

Sequence of recombinant full-length human BLM with a C-terminal His6-tag (P54132 whole entry): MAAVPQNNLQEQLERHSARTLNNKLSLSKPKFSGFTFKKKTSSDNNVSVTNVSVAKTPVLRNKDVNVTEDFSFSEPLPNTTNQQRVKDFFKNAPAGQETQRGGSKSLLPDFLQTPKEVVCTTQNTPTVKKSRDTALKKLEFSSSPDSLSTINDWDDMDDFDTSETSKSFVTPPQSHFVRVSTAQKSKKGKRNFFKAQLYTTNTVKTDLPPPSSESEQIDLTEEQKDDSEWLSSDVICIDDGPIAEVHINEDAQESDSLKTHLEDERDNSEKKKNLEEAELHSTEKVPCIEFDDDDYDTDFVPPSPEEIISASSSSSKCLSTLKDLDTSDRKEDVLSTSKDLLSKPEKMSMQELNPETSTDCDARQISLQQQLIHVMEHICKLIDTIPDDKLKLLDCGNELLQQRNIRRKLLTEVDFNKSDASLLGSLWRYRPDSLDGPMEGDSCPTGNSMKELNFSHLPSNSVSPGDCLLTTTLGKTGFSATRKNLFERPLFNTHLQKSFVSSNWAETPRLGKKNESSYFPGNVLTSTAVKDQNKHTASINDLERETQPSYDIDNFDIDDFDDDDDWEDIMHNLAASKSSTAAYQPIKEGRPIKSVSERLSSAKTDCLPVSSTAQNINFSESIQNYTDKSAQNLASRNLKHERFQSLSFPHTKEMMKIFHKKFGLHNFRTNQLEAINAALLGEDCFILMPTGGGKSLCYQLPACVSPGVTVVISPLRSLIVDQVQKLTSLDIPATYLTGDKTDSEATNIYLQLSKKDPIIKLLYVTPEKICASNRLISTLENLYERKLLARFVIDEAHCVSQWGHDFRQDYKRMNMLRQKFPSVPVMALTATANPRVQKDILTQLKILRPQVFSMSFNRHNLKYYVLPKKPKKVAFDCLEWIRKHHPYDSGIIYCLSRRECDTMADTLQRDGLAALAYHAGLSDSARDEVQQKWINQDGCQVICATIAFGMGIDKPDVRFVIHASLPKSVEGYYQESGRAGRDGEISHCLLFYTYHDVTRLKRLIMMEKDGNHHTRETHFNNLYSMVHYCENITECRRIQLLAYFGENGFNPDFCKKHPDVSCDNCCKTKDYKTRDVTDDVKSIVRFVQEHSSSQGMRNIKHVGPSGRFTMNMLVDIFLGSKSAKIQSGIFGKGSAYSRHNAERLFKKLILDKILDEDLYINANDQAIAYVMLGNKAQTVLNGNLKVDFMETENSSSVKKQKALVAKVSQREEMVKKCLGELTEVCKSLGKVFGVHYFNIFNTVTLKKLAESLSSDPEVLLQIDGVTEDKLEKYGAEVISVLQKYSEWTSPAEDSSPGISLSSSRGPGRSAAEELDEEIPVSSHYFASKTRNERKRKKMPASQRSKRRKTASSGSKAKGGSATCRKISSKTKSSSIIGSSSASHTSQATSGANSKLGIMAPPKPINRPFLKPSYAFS

binding result: binds
B1: recombinant full length human Mcm6 from wheat germ (natural protein)
chain: MDLAAAAEPGAGSQHLEVRDEVAEKCQKLFLDFLEEFQSSDGEIKYLQLAEELIRPERNTLVVSFVDLEQFNQQLSTTIQEEFYRVYPYLCRALKTFVKDRKEIPLAKDFYVAFQDLPTRHKIRELTSSRIGLLTRISGQVVRTHPVHPELVSGTFLCLDCQTVIRDVEQQFKYTQPNICRNPVCANRRRFLLDTNKSRFVDFQKVRIQETQAELPRGSIPRSLEVILRAEAVESAQAGDKCDFTGTLIVVPDVSKLSTPGARAETNSRVSGVDGYETEGIRGLRALGVRDLSYRLVFLACCVAPTNPRFGGKELRDEEQTAESIKNQMTVKEWEKVFEMSQDKNLYHNLCTSLFPTIHGNDEVKRGVLLMLFGGVPKTTGEGTSLRGDINVCIVGDPSTAKSQFLKHVEEFSPRAVYTSGKASSAAGLTAAVVRDEESHEFVIEAGALMLADNGVCCIDEFDKMDVRDQVAIHEAMEQQTISITKAGVKATLNARTSILAAANPISGHYDRSKSLKQNINLSAPIMSRFDLFFILVDECNEVTDYAIARRIVDLHSRIEESIDRVYSLDDIRRYLLFARQFKPKISKESEDFIVEQYKHLRQRDGSGVTKSSWRITVRQLESMIRLSEAMARMHCCDEVQPKHVKEAFRLLNKSIIRVETPDVNLDQEEEIQMEVDEGAGGINGHADSPAPVNGINGYNEDINQESAPKASLRLGFSEYCRISNLIVLHLRKVEEEEDESALKRSELVNWYLKEIESEIDSEEELINKKRIIEKVIHRLTHYDHVLIELTQAGLKGSTEGSESYEEDPYLVVNPNYLLED
